Data on six molecules can be found in patent US20240309105A1 (Boehringer Ingelheim, published 2024).

Experiment [1] concerns the target T1, human CD40 on cells (human, UniProt P25942 21-277). Nature of the experiment: FACS on B cells in whole blood of healthy subjects, free CD40 detected with excess FITC-labeled antibody; 72 hours after a single 80 mg SC dose.
The target in experiment [2] is T1, human CD40 on cells. Nature of the experiment: cell-based or functional assay.
The target of experiment [3] is T1, human CD40 on cells. Nature of the experiment: FACS on B cells in whole blood of healthy subjects; after the fourth once-weekly SC dose, all doses, until Day 39.
Experiment [4] concerns the target T1, human CD40 on cells. Nature of the experiment: FACS on B cells in whole blood of healthy subjects, free CD40 detected with excess FITC-labeled antibody; 72 hours after a single 120-240 mg SC dose.
Experiment [5] addresses T1, human CD40 on cells. Nature of the experiment: binding to human B cells.
The target of experiment [6] is T1, human CD40 on cells. The experiment in a line: FACS on B cells in whole blood of healthy subjects; 240 mg SC dose group, Day 78.
For experiment [7], the target named is T1, human CD40 on cells. The experiment in a line: FACS on B cells in whole blood of healthy subjects; 180 mg SC dose group, Day 64.
Experiment [8] concerns the target T1, human CD40 on cells. Nature of the experiment: FITC-labeled antibody on Ramos cells.
The target of experiment [9] is T2, human CD40-Fc protein (human, UniProt P25942 21-193).
T2 construct: also called recombinant CD40 protein; not shown: Fc part
T2 sequence (P25942 21-193 limits assumed): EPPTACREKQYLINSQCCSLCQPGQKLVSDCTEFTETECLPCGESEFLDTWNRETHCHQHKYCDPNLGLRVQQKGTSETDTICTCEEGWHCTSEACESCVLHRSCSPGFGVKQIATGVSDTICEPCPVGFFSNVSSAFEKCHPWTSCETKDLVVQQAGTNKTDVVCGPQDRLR
Nature of the experiment: ForteBio Octet, human CD40-Fc, with and without human serum. The protocol: Due to antibody and CD40-Fc bivalency avidity effects prevent Kds below 100 pM from being determined accurately. In addition, the binding to CD40-Fc was analyzed in the absence and presence of 50% human serum and no significant effect of serum on binding was observed (data not shown)
(In BLI a coated tip is dipped into the sample, and binding shifts an interference pattern.)

Experiment [10] concerns the target T1, human CD40 on cells. Nature of the experiment: flow cytometry, human CD40-transfected HEK293 cells.
For experiment [11], the target named is T1, human CD40 on cells. Nature of the experiment: cell-based or functional assay. This is another data set of the same source.
The target of experiment [12] is T1, human CD40 on cells. The experiment in a line: cell-based or functional assay. The source holds these as a separate data set.
Experiment [13] concerns the target T1, human CD40 on cells. Nature of the experiment: cell binding, flow cytometry (cell line not given). The protocol: The specific binding of humanized antibodies to cellular CD40 was analyzed by flow cytometry using human CD40-transfected HEK293 cells. Concentration-dependent binding of Antibody A, Antibody B, and Antibody C was observed. […] No binding was detected on CD40 negative cells such as non-transfected HEK293 cells or the T cell line HSB-2 thus confirming selective binding to CD40 (data not shown).

In experiment [14] the target is T3, cynomolgus monkey CD40 on cells (cynomolgus monkey, UniProt G7PG38 21-278).
T3 construct: whole, on cells; Cell surface CD40 on cynomolgus B cells and platelets; also called Cyno CD40; CD40 on cynomolgus monkey B cells and platelets
Nature of the experiment: ratio of binding EC50, human over cynomolgus; ratio > 1 means increased binding to Cyno compared to Human.

A value given as a limit tells only on which side of the number the result lay.

T1 sequence (P25942 21-277): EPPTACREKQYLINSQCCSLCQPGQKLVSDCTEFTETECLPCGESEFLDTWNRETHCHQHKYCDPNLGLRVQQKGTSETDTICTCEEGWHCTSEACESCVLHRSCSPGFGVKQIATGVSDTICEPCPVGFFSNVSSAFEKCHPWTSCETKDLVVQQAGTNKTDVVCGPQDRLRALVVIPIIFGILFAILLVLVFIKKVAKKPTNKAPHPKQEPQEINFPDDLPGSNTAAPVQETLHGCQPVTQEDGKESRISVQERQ

By EC90 is commonly meant the point of the concentration-response curve where the effect stands at 90%. As for “an antibody of the present invention (BI 655064)”, the CD40 receptor occupancy (RO) in experiment [1] worked out at 89%. Moreover, in experiment [2], the inhibition of CD54 upregulation after the fourth once-weekly SC dose, all doses, up to Day 39 is > 90%; the inhibition of CD54 upregulation, 80 mg SC single dose, first post-dose measurement (72 hours) was determined as 87%; the inhibition of CD54 upregulation, 80 mg SC, Day 7 post dose is 95%; the inhibition of CD54 upregulation, 180 mg group, Day 64 came to 89%. Besides, in experiment [2], the inhibition of CD54 upregulation, 240 mg group, Day 78 worked out at 51%; the inhibition of CD54 upregulation, all other doses (120-240 mg SC), from 72 hours onwards amounted to 95%; the inhibition of CD54 upregulation, higher doses (120-240 mg SC), 72 hours after the first dose was > 90%. Further, the CD40 receptor occupancy (RO) in experiment [3] was > 90%. In experiment [4], this molecule had a CD40 receptor occupancy (RO) of 94 to 95%. For the same molecule, in experiment [5], the EC90 worked out at 6.85 nM. Further, the CD40 receptor occupancy (RO) in experiment [6] was 68%. For the same molecule, in [7], the CD40 receptor occupancy (RO) turned out to be 79%.

B1: 2H11 (antibody, V domains shown)
VH: EVQLQQSGAELVRPGASVKLSCTASGFNIKDYYVHWVKQRPEKGLEWIGRIDPEDGDSKYAPKFQGKATMTADTSSNTAYLHLSSLTSEDTAVYYCTTSYYVGTYGYWGQGTTLTVSS
VL: QIVLTQSPAIMSASPGEKVTITCSASSSVSYMLWFQQKPGTSPKLWIYSTSNLASGVPARFGGSGSGTSYSLTISRMEAEDAATYYCQQRTFYPYTFGGGTKLEIK
notes: Mouse monoclonal antibody; also called murine anti-CD40 mAb 2H11
For B1, the binding result in experiment [8] is listed as “binds”.

B2: 4D11 (Kirin/Astellas) anti-CD40 antibody (antibody, V domains shown)
VH: QLQLQESGPGLLKPSETLSLTCTVSGGSISSPGYYGGWIRQPPGKGLEWIGSIYKSGSTYHNPSLKSRVTISVDTSKNQFSLKLSSVTAADTAVYYCTRPVVRYFGWFDPWGQGTLVTVSS
VL: AIQLTQSPSSLSASVGDRVTITCRASQGISSALAWYQQKPGKAPKLLIYDASNLESGVPSRFSGSGSGTDFTLTISSLQPEDFATYYCQQFNSYPTFGQGTKVEIK
As usually defined, the Kd is a measure of binding affinity in units of concentration. In general, EC50 refers to the concentration that produces a half-maximal response. In the case of B2, the Kd in experiment [9] is < 0.1 nM. Further, the EC50 in experiment [10] is ~1 nM; in [13], 0.9 nM. Also, the “B cell proliferation: Agonism (SI*)” value in experiment [11] was < 2 SI (Stimulation Index). In addition, the “B cell proliferation assay, average IC50” value in experiment [12] was ~0.02 nM.

B3: Antibody C (antibody, human IgG1, kappa, L234A L235A, V domains shown)
VH: QVQLVQSGAEVKKPGASVKVSCTASGFNIKDYYVHWVKQAPGQGLEWMGRIDPEDGDSKYAPKFQGKATMTADTSTSTVYMELSSLRSEDTAVYYCTTSYYVGTYGYWGQGTLVTVSS
VL: DIQMTQSPSSLSASVGDRVTITCSASSSVSYMLWFQQKPGKAPKLLIYSTSNLASGVPSRFSGSGSGTDFTLTISSLQPEDFATYYCQQRTFYPYTFGGGTKVEIKR
notes: also called humanized 2H11
Take B3: in experiment [14], the “Species cross-react.: Hu/Cyno Binding (EC50 ratios)” value was determined as 1 ratio. In addition, the Kd in [9] is < 0.1 nM. In addition, the “B cell proliferation: Agonism (SI*)” value in [11] is < 2 SI (Stimulation Index). Moreover, the EC50 in [13] is 1.7 nM.

B4: Antibody A (antibody, human IgG1, kappa, L234A L235A, V domains shown)
VH: EVQLVESGGGLVKPGGSLRLSCAASGFTFSDYGMHWVRQAPGKGLEWVAYISSGNRIIYYADTVKGRFTISRDNAKNSLYLQMNSLRAEDTALYYCARQDGYRYAMDYWAQGTLVTVSS
VL: DIVMTQSPDSLAVSLGERATMSCKSSQSLLNSGNQKNYLTWHQQKPGQPPKLLIYWTSTRESGVPDRFSGSGSGTDFTLTISSLQAEDVAVYYCQNDYTYPLTFGGGTKVEIKR
notes: also called humanized 20E2
Regarding B4, in [14], the “Species cross-react.: Hu/Cyno Binding (EC50 ratios)” value was 3 ratio. For the same molecule, in experiment [9], the Kd was < 0.1 nM. In addition, the “B cell proliferation: Agonism (SI*)” value in experiment [11] is < 2 SI (Stimulation Index). Moreover, the response in experiment [13] was half-maximal at 1.2 nM (EC50).

B5: Antibody B (antibody, human IgG1, kappa, L234A L235A, V domains shown)
VH: EVQLVESGGGLVKPGGSLRLSCAASGFTFSDYGMHWVRQAPGKGLEWVAYISSGNRIIYYADTVKGRFTISRDNAKNSLYLQMNSLRAEDTAVYYCARQDGYRYAMDYWGQGTLVTVSS
VL: DIVMTQSPDSLAVSLGEKVTINCKSSQSLLNSGNQKNYLTWHQQKPGQPPKLLIYWTSTRESGVPDRFSGSGSGTDFTLTISSLQAEDVAVYYCQNDYTYPLTFGGGTKVEIKR
notes: also called humanized 20E2
In the case of B5, in experiment [14], the “Species cross-react.: Hu/Cyno Binding (EC50 ratios)” value was 2 ratio. Moreover, in experiment [9], the equilibrium dissociation constant (Kd) was < 0.1 nM. Also, the “B cell proliferation: Agonism (SI*)” value in experiment [11] was < 2 SI (Stimulation Index). The concentration giving a half-maximal response (EC50) in experiment [13] was 1.5 nM.
